# Reference: patent US11306331B2, “Processes for the production of hydroxycinnamic acids using polypeptides having tyrosine ammonia lyase activity” (CysBio ApS, priority 2014, dated 2022)
# B1: Rhodobacter sphaeroides RsTAL (Protein GI 126464011), His-tagged (N-terminal tag SEQ ID NO: 11) (Cereibacter sphaeroides 2.4.1) (protein)
# chain: MLAMSPPKPAVELDRHIDLDEAHSVASGGARIVLAPPARDRCRASEARLGAVIREARHVYGLTTGFGPLANRLVSGENVRTLQANLVHHLASGVGPVLDWTTARAMVLARLVAIAQGASGASEGTIARLIDLLNSELAPAVPMRGTVGASGDLTPLAHMVLCLQGRGDFLDRDGTRLDGAEGLRRGRLQPLDLSHRDALALVNGTSAMTGIALVNAHACRHLGNWAVALTALLAECLGGRTEAWAAALSDLRPHPGQKDAAARLRARVDGSARVVRHVIAERRLGASDIGTEPEAGQDAYSLRCAPQVLGAGFDTLAWHDRVLTIELNAVTDNPVFPPDGSVPALHGGNFMGQHVALTSDALATAVTVLAGLAERQIARLTDERLNRGLPPFLHRGPAGLNSGFMGAQVTATALLAEMRATGPASIHSISTNAANQDVVSLGTIAARLCREKIDRWAEILAILALCLAQAAELRCGSGLDGVSPAGKKLVQALREQFPPLETDRPLGQEIAALATHLLQQSPV
# B2: Saccharothrix espanaensis SeSam8 (Protein GI 433607630), His-tagged (N-terminal tag SEQ ID NO: 11) (Saccharothrix espanaensis) (protein)
# chain: MTQVVERQADRLSSREYLARVVRSAGWDAGLTSCTDEEIVRMGASARTIEEYLKSDKPIYGLTQGFGPLVLFDADSELEQGGSLISHLGTGQGAPLAPEVSRLILWLRIQNMRKGYSAVSPVFWQKLADLWNKGFTPAIPRHGTVSASGDLQPLAHAALAFTGVGEAWTRDADGRWSTVPAVDALAALGAEPFDWPVREALAFVNGTGASLAVAVLNHRSALRLVRACAVLSARLATLLGANPEHYDVGHGVARGQVGQLTAAEWIRQGLPRGMVRDGSRPLQEPYSLRCAPQVLGAVLDQLDGAGDVLAREVDGCQDNPITYEGELLHGGNFHAMPVGFASDQIGLAMHMAAYLAERQLGLLVSPVTNGDLPPMLTPRAGRGAGLAGVQISATSFVSRIRQLVFPASLTTLPTNGWNQDHVPMALNGANSVFEALELGWLTVGSLAVGVAQLAAMTGHAAEGVWAELAGICPPLDADRPLGAEVRAARDLLSAHADQLLVDEADGKDFG
# B3: Herpetosiphon aurantiacus HaXAL1 tyrosine ammonia lyase (Protein GI 159898407), SEQ ID NO: 2, His-tagged (N-terminal tag SEQ ID NO: 11) (Herpetosiphon … (protein)
# chain: MSTTLILTGEGLGIDDVVRVARHQDRVELTTDPAILAQIEASCAYINQAVKEHQPVYGVTTGFGGMANVIISPEEAAELQNNAIWYHKTGAGKLLPFTDVRAAMLLRANSHMRGASGIRLEIIQRMVTFLNANVTPHVREFGSIGASGDLVPLISITGALLGTDQAFMVDFNGETLDCISALERLGLPRLRLQPKEGLAMMNGTSVMTGIAANCVHDARILLALALEAHALMIQGLQGTNQSFHPFIHRHKPHTGQVWAADHMLELLQGSQLSRNELDGSHDYRDGDLIQDRYSLRCLPQFLGPIIDGMAFISHHLRVEINSANDNPLIDTASAASYHGGNFLGQYIGVGMDQLRYYMGLMAKHLDVQIALLVSPQFNNGLPASLVGNIQRKVNMGLKGLQLTANSIMPILTFLGNSLADRFPTHAEQFNQNINSQGFGSANLARQTIQTLQQYIAITLMFGVQAVDLRTHKLAGHYNAAELLSPLTAKIYHAVRSIVKHPPSPERPYIWNDDEQVLEAHISALAHDIANDGSLVSAVEQTLSGLRSIILFR
# Key:
# [1] = substrate: N[C@@H](Cc1ccccc1)C(=O)O; experiment: purified protein, by the assay type; conditions: other: RsTAL, 30° C, 1.56 μM to 200 μM tyrosine or 193 μM to 25 mM phenylalanine, pH 7.5
# Procedure: (§5) Enzymatic assays were performed in 200 μL volumes in wells in a UV transparent 96-well plate, by following the increase in absorbance at 315 nm (pHCA) or 295 nm (CA). The reaction mixtures contained 2 μg of purified protein and were initiated by adding 1 mM tyrosine or 6 mM after equilibration to 30° C. The enzymatic activity was calculated as U/g, where U is defined as μmol substrate converted per minute.
# [2] = substrate: N[C@@H](Cc1ccc(O)cc1)C(=O)O; experiment: purified protein, by the assay type; conditions: other: RsTAL, 30° C, 1.56 μM to 200 μM tyrosine or 193 μM to 25 mM phenylalanine, pH 7.5
# Procedure: as §5
# [3] = substrate: N[C@@H](Cc1ccccc1)C(=O)O; experiment: In vitro kinetics of purified His-tagged SeSam8 (tyrosine/phenylalanine ammonia lyase activity, absorbance at 315/295 nm); format: biochemical, Saccharothrix espanaensis; conditions: other: SeSam8, 30° C, 1.56 μM to 200 μM tyrosine or 193 μM to 25 mM phenylalanine, pH 7.5
# Excerpt: (§1) Four of the enzymes were further purified by His-tag purification as follows. A DNA linker (5′ phosphorylated oligonucleotides CBJP559 and CBJP560, Table 5) was inserted in place of the sequence between the NdeI and BgIII site in plasmid pCDFDuet-1. This would result in the addition of the amino acids MAHHHHHHENLYFQ (SEQ ID NO: 11) to the N-terminal end of the polypeptides. The resulting plasmid was amplified with primers CBJP575 and CBJP576 (table 5) and the genes were amplified and combined using the Gibson reaction (New England Biolabs). The PCR amplification used the same reverse primers as in example 1, but the forward primers matching the His-tag site of the linker (Table 5). Plasmids carrying the genes (e.g. FjXAL, FIG. 4) were transformed into electrocompetent E. coli BL21(DE3)pLysS cells (Life Technologies) and selected on LB plates containing 50 ug/mL streptomycin.
# (§2) Strains expressing His-tagged versions of the enzymes were grown in LB media overnight at 37° C. and diluted into fresh LB media with 1 mM IPTG and growth was propagated overnight (approximately 18 h) at 30° C. Cells were harvested by centrifugation at 8000 rpm for 8 minutes, and disrupted by shearing into a buffer (50 mM Tris-HCl, 10 mM imidazole, 500 mM NaCl, 10% glycerol, pH 7.5). The homogenate was clarified by centrifugation at 10000 g for 10 min at 4° C., and the supernatant was loaded onto Ni2+-NTA resin column on an Äkta Pure system connected to a F9-C fraction collector (GE). Finally the fractions containing the purified polypeptide was dialyzed overnight against a buffer containing 50 mM Tris-HCl pH 7.5, 150 mM NaCl and 10% glycerol, flash-frozen in liquid nitrogen and stored at −80° C.
# (§3) Enzymatic assays were performed in 200 μL volumes in wells in a UV transparent 96-well plate, by following the increase in absorbance at 315 nm (pHCA) or 295 nm (CA). […] The enzymatic activity was calculated as U/g, where U is defined as μmol substrate converted per minute.
# [4] = substrate: N[C@@H](Cc1ccc(O)cc1)C(=O)O; experiment: as above; format: biochemical, Saccharothrix espanaensis; conditions: other: SeSam8, 30° C, 1.56 μM to 200 μM tyrosine or 193 μM to 25 mM phenylalanine, pH 7.5
# Excerpt: as §1, §2, §3
# [5] = system: Saccharomyces cerevisiae CEN.PK102-5B; experiment: Specific production of pHCA and CA by S. cerevisiae expressing TAL enzymes; format: cell-based; conditions: 72 h, 30° C., +/- standard deviation
# Excerpt: A number of the previously characterized enzymes were characterized when expressed in Saccharomyces cerevisiae. Genes encoding HaXAL1 and FjXAL were synthesized with codon optimization for S. cerevisiae available by GeneArt (Life Technologies), and were named HaXAL1 Sc and FjXALSc. Genes were amplified using the oligonucleotide (refer to specific name) shown in Table 6, and inserted by uracil-excision into the vector pCfB132 together with the PPGK1 promoter amplified by primers PPGK1_fw and PPGK1_rv (Jensen et al., 2014). The finished plasmids were transformed into Saccharomyces cerevisiae CEN.PK102-5B (MAT a ura3-52 his3Δ1 leu2-3/112 MAL2-8c SUC2) using a standard lithium acetate transformation protocol and selected for on synthetic drop-out media plates lacking uracil.
# Cells were grown in SC medium without uracil, and diluted into Delft medium or Feed-In-Time (FIT) medium (m2p-labs) supplemented with leucine and histidine. After 72 h of incubation at 30° C. with shaking, samples were taken for the analysis of optical density at 600 nm and for clarification of the supernatant, which was analyzed by HPLC as described in example 1. The specific production was calculated as micromolar (μM) concentration per unit of optical density of the culture at 600 nm and is shown in Table 4.
# [6] = substrate: N[C@@H](Cc1ccccc1)C(=O)O; experiment: In vitro kinetics of purified His-tagged HaXAL1 (tyrosine/phenylalanine ammonia lyase activity, absorbance at 315/295 nm); format: biochemical, Herpetosiphon aurantiacus; conditions: other: HaXAL1, 30° C, 1.56 μM to 200 μM tyrosine or 193 μM to 25 mM phenylalanine, pH 7.5
# Procedure: (§4) The tyrosine ammonia lyase activity may for instance be determined in accordance to the following method: Enzymatic assays are performed in 200 μL volumes in wells in a UV transparent 96-well plate, by following the increase in absorbance at 315 nm (pHCA) using spectrophotometry or HPLC with UV detection. The reaction mixtures contain 2 μg of purified protein and are initiated by adding 1 mM tyrosine or 6 mM after equilibration to 30° C. The enzymatic activity is calculated as U/g, where U is defined as μmol substrate converted per minute. Negative controls contain no purified protein. Kinetic constants Km and vmax are determined from assays containing 1.56 μM to 200 μM tyrosine. See also Kyndt et al. (2002).
# as §1, §2, §3
# [7] = substrate: N[C@@H](Cc1ccc(O)cc1)C(=O)O; experiment: as above; format: biochemical, Herpetosiphon aurantiacus; conditions: other: HaXAL1, 30° C, 1.56 μM to 200 μM tyrosine or 193 μM to 25 mM phenylalanine, pH 7.5
# Procedure: as §4, §1, §2, §3
# [8] = system: E. coli BL21(DE3)pLysS cells; experiment: Specific production of pHCA and CA by E. coli expressing TAL/PAL enzymes; format: cell-based, Escherichia coli; conditions: 24 h after supplementation, +/- standard deviation
# Procedure: Plasmids carrying the genes were transformed into electrocompetent E. coli BL21(DE3)pLysS cells (Life Technologies) and selected on LBplates containing 50 ug/mL streptomycin. The strains were grown in M9 minimal media containing glucose as a carbon source, and expression was induced by adding 1 mM IPTG at an optical density at 600 nm of 0.6. After three hours of growth at 30° C. the cultures were supplemented with 2 mM tyrosine, phenylalanine or histidine. After further 24 hours, samples were withdrawn for determination of the optical density at 600 nm and for the isolation of the supernatant.
# The concentration of pHCA and CA in the supernatant was quantified by high performance (HPLC) and compared to chemical standards. HPLC was done on a Thermo setup using a HS-F5 column and mobile phases: 5 mM ammonium formate pH 4.0 (A) and acetonitrile (B) at 1.5 mL min-1, using a gradient elution starting at 5% B. From 0.5 min after injection to 7 min, the fraction of B increased linearly from 5% to 60%, and between 9.5 min and 9.6 the fraction of B decreased back to 5%, and remaining there until 12m pHCA and CA were quantified by measuring absorbance at 333 nm and 277 nm, respectively. The production was tested without addition of precursors or the addition of either phenylalanine or tyrosine to the growth medium.
# The specific production was calculated as micromolar (μM) concentration per unit of optical density of the culture at 600 nm, and standard deviations were calculated based on triplicate experiments. HaXAL1, HaXAL2 and FjXAL are the most specific enzymes and those that reach the highest yields.
# [9] = system: E. coli BL21(DE3)pLysS cells; experiment: Titers of hydroxycinnamic acids in supernatants of E. coli cultures expressing TAL homologs; format: cell-based, Escherichia coli; conditions: 16 hours, 37° C., duplicate
# Procedure: E. coli strains described in Example 1 were used. M9 medium with 0.2% glucose and 0.5 mM IPTG also containing either tyrosine (204 μM), L-dopa (194 μM) or 3-O-methyldopa (262 μM) was transferred as 3-mL aliquots into a 24-well deep-well plate (Enzyscreen). Aliquots were taken for HPLC before the wells were inoculated with 200 μL of overnight cultures of the strains. The plates were placed at 37° C. with shaking for 16 hours. Samples of the supernatant were withdrawn after two rounds of centrifugation. The samples were subjected to HPLC along with chemical standards as described in Example 1. p-coumaric acid, caffeic acid and ferulic acid was measured by absorbance at 333 nm. Tyrosine, L-dopa and 3-O-methyldopa were measured by fluorescence (excitation at 274 nm, emission at 303 nm).
# There was no measurable product in the medium before inoculation.
molecule,measurement,setting,value
B1,Km,[1],2400 µM
same,kcat,[1],0.0597 s⁻¹
same,kcat/Km,[1],24.6 M⁻¹ s⁻¹
same,Km,[2],5.6 µM
B2,Km,[3],2200 µM
same,kcat,[3],0.00883 s⁻¹
same,kcat/Km,[3],4.03 M⁻¹ s⁻¹
same,Km,[4],4.8 µM
B3,Specific production of CA,[5]; Delft + Tyr (10 mM),0 ± 0 μM OD600-1
same,Specific production of pHCA,[5]; Delft + Tyr (10 mM),110 ± 15 μM OD600-1
same,Specific production of CA,[5]; Delft medium,0 ± 0 μM OD600-1
same,Specific production of pHCA,[5]; Delft medium,31 ± 3.2 μM OD600-1
same,Specific production of CA,[5]; FIT + Tyr (10 mM),0 ± 0 μM OD600-1
same,Specific production of pHCA,[5]; FIT + Tyr (10 mM),120 ± 10 μM OD600-1
same,Specific production of CA,[5]; FIT medium,0 ± 0 μM OD600-1
same,Specific production of pHCA,[5]; FIT medium,140 ± 13 μM OD600-1
same,Km,[6],22000 µM
same,kcat,[6],0.128 s⁻¹
same,kcat/Km,[6],6.1 M⁻¹ s⁻¹
same,Km,[7],16 µM
same,Specific production of CA,[8]; M9 + Phe (2 mM),1.1 ± 0.2 μM OD600-1
same,Specific production of pHCA,[8]; M9 + Phe (2 mM),36 ± 14 μM OD600-1
same,Specific production of CA,[8]; M9 + Tyr (2 mM),0 ± 0 μM OD600-1
same,Specific production of pHCA,[8]; M9 + Tyr (2 mM),130 ± 26 μM OD600-1
same,Titer of ferulic acid,[9]; M9 + 3-O-methyldopa (262 μM),0.6 ± 0.0 µM
same,Titer of caffeic acid,[9]; M9 + L-dopa (194 μM),6.9 ± 1.3 µM
same,Titer of p-coumaric acid,[9]; M9 + tyrosine (204 μM),81 ± 1.2 µM
